Test results taken from patent publication US20060019314A1.

What was measured:
FOXO3a (human) = FOXO3a (human) (UniProt O43524); assay: cell-based or functional assay
FOXO3a-TM (human) = FOXO3a-TM (human) (UniProt O43524); assay: cell-based or functional assay

synthetic FOXO luciferase reporter (three tandem IRS elements), HepG2 cells (percent increase) (FOXO3a (human)): 50
synthetic FOXO luciferase reporter (three tandem IRS elements), 293 cells (FOXO3a-TM (human)): 12 fold
synthetic FOXO luciferase reporter (three tandem IRS elements), HepG2 cells (FOXO3a-TM (human)): 2 fold
Substance: human Smek1 (from UniProt Q6IN85 1-833)
